Laboratory results: the Human Domainome abundance scans (Beltran et al. 2025)
± gives the uncertainty stated by the source.

B1: WW domain-containing transcription regulator protein 1, residues 116 to 162; numbered along this chain, Q9GZV5 (parent)
chain: QSYDVTDELPLPPGWEMTFTATGQRYFLNHIEKITTWQDPRKAMNQP
B2: SH3 and PX domain-containing protein 2B, residues 155 to 209; numbered along this chain, A1X283 (parent)
chain: EQYVVVANYQKQESSEISLSVGQVVDIIEKNESGWWFVSTAEEQGWVPATCLEGQ

Variants of: B1
Test: abundance fitness (aPCA) (normalised: wild type 0, dead -1); higher = more abundant; growth selection in yeast, the domain comes from the species named
Details: Homo sapiens

Variant	abundance fitness
T18L	-0.047 ± 0.037
Q46G	-0.058 ± 0.033
W37A	-0.376 ± 0.028
E16N	-0.58 ± 0.091
N29E	-0.931 ± 0.063
I31T	-0.011 ± 0.083
P10Q	-0.123 ± 0.048
L11A	-0.715 ± 0.038
T6D	-0.104 ± 0.044
L9R	0.027 ± 0.029
N29A	-0.919 ± 0.041
K42P	-0.161 ± 0.033
T6I	-0.032 ± 0.046
T22V	-0.37 ± 0.029
F27C	-0.825 ± 0.05
S2F	-0.035 ± 0.055
Q1G	-0.163 ± 0.059
E32V	-0.19 ± 0.025
K42L	-0.111 ± 0.034
L11F	-0.08 ± 0.038
Y26N	-0.412 ± 0.067
Q38L	-0.031 ± 0.025
Q1E	-0.182 ± 0.062

Variant	abundance fitness
T20A	-0.287 ± 0.036
K42R	-0.111 ± 0.04
F27A	-0.777 ± 0.034
Q24M	-0.489 ± 0.06
A21T	-0.039 ± 0.03
F27H	-0.707 ± 0.2
T20L	-0.519 ± 0.045
M44I	-0.244 ± 0.059
E16P	-0.864 ± 0.085
I34D	-0.454 ± 0.051
D39H	-0.202 ± 0.055
L11P	-0.556 ± 0.044
L9C	-0.103 ± 0.04
L9I	0.022 ± 0.05
N29S	-0.357 ± 0.035
K42Y	-0.164 ± 0.037
E16R	-0.365 ± 0.027
P12L	-0.738 ± 0.048
D39G	-0.747 ± 0.055
E16H	-0.684 ± 0.12
W15G	-0.636 ± 0.048
P40A	-0.767 ± 0.077
T18N	-0.159 ± 0.053

Variants of: B2
Test: as above
Details: Homo sapiens

Variant	abundance fitness
E1A	-0.364 ± 0.17
E1D	-0.108 ± 0.14
E1G	-0.315 ± 0.098
E1I	-0.299 ± 0.33
E1K	0.042 ± 0.16
E1L	-0.001 ± 0.14
E1M	-0.329 ± 0.24
E1R	-0.469 ± 0.19
E1S	-0.177 ± 0.31
E1V	-0.035 ± 0.076
Q2A	-0.247 ± 0.11
Q2C	-0.086 ± 0.14
Q2D	-0.378 ± 0.18
Q2E	-0.328 ± 0.37
Q2F	-0.185 ± 0.47
Q2G	-0.082 ± 0.081
Q2H	-0.178 ± 0.35
Q2I	-0.347 ± 0.29
Q2K	-0.062 ± 0.16
Q2L	-0.189 ± 0.087
Q2N	0.13 ± 0.25
Q2P	-0.068 ± 0.12
Q2R	-0.167 ± 0.12
Q2S	-0.058 ± 0.11
Q2T	-0.148 ± 0.12

Variant	abundance fitness
Q2V	0.012 ± 0.11
Q2W	-0.415 ± 0.1
Q2Y	-0.29 ± 0.39
Y3A	0.106 ± 0.095
Y3C	-0.349 ± 0.14
Y3D	-0.162 ± 0.2
Y3E	-0.114 ± 0.15
Y3F	-0.053 ± 0.13
Y3G	0.003 ± 0.074
Y3H	-0.537 ± 0.17
Y3I	-0.175 ± 0.13
Y3K	-0.035 ± 0.15
Y3L	-0.237 ± 0.077
Y3N	-0.268 ± 0.13
Y3P	-0.585 ± 0.18
Y3Q	-0.17 ± 0.13
Y3R	-0.127 ± 0.067
Y3S	0.039 ± 0.093
Y3T	-0.06 ± 0.11
Y3V	-0.073 ± 0.081
Y3W	-0.324 ± 0.12
V4A	-0.047 ± 0.082
V4C	-0.01 ± 0.13
V4D	-0.148 ± 0.1
V4E	0.003 ± 0.099

Variant	abundance fitness
V4F	-0.061 ± 0.1
V4G	-0.265 ± 0.076
V4H	-0.308 ± 0.15
V4I	0.082 ± 0.13
V4L	0.075 ± 0.065
V4M	-0.463 ± 0.26
V4N	-0.139 ± 0.14
V4Q	-0.018 ± 0.15
V4R	0.077 ± 0.096
V4S	0.083 ± 0.088
V4T	0.193 ± 0.18
V4W	-0.271 ± 0.12
V4Y	0.046 ± 0.21
V5C	-0.108 ± 0.12
V5D	-0.999 ± 0.2
V5E	-0.939 ± 0.23
V5F	-0.875 ± 0.2
V5G	-0.37 ± 0.064
V5H	-1.08 ± 0.31
V5I	-0.379 ± 0.14
V5K	-0.552 ± 0.35
V5L	-0.919 ± 0.12
V5M	-0.418 ± 0.15
V5N	-0.946 ± 0.27
V5P	-0.892 ± 0.15

Variant	abundance fitness
V5Q	-0.994 ± 0.24
V5R	-1.04 ± 0.12
V5S	-0.099 ± 0.076
V5T	-0.309 ± 0.34
V5W	-0.938 ± 0.16
V6A	0.049 ± 0.087
V6C	-0.151 ± 0.15
V6E	-0.366 ± 0.11
V6F	-0.131 ± 0.21
V6G	-0.151 ± 0.061
V6I	0.054 ± 0.14
V6K	0.056 ± 0.15
V6L	-0.199 ± 0.11
V6N	-0.214 ± 0.25
V6P	-0.529 ± 0.16
V6Q	-0.199 ± 0.14
V6S	-0.087 ± 0.11
V6W	-0.326 ± 0.1
V6Y	-0.262 ± 0.17
A7C	-0.25 ± 0.093
A7D	-0.046 ± 0.14
A7E	-0.088 ± 0.1
A7F	-0.076 ± 0.17
A7G	-0.098 ± 0.058
A7H	-0.394 ± 0.2

Variant	abundance fitness
A7I	-0.32 ± 0.12
A7K	-0.024 ± 0.12
A7L	-0.101 ± 0.081
A7M	-0.15 ± 0.12
A7N	-0.09 ± 0.15
A7Q	-0.106 ± 0.11
A7R	-0.066 ± 0.075
A7S	-0.052 ± 0.083
A7W	-0.286 ± 0.11
A7Y	0.025 ± 0.12
N8A	0.093 ± 0.081
N8D	0.04 ± 0.11
N8E	-0.068 ± 0.092
N8F	-0.26 ± 0.12
N8G	0.012 ± 0.054
N8H	-0.102 ± 0.13
N8I	-0.501 ± 0.18
N8K	-0.083 ± 0.17
N8L	-0.447 ± 0.075
N8M	-0.305 ± 0.11
N8P	-0.069 ± 0.15
